Measurements reported in patent US20160176956A1 (Novartis, published 2016).
Read-outs that look alike come from different tables or passages of the source.

T1: human BMP5 (human, UniProt P22003 317-454, limits assumed)
T1 sequence: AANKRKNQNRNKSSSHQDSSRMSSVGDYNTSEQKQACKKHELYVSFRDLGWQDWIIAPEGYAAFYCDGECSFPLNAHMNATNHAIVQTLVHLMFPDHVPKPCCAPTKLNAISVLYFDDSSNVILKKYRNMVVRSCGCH

T2: mouse BMP6 (mouse, UniProt P20722 372-510, limits assumed)
T2 construct: also called mBMP6; mBMP6_RD
T2 sequence (looked up): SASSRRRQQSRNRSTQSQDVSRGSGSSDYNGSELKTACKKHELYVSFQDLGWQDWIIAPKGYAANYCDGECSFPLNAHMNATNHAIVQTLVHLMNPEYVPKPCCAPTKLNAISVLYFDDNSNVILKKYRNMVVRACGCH

T3: human BMP6 (human, UniProt P22004 382-513, limits assumed)
T3 sequence: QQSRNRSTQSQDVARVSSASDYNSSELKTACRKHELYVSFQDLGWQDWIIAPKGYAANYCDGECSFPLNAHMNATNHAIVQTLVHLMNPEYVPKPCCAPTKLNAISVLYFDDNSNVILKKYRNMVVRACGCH

T4: human BMP7 (human, UniProt P18075 293-431)
T4 sequence: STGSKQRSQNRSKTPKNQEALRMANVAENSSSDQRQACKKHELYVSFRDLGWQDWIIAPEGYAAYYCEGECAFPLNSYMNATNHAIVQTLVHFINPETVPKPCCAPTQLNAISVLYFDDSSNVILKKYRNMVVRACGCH


Assays:
Bovine serum albumin [1] = target: T5, Bovine serum albumin (bovine, UniProt P02769 25-607); assay: specificity ELISA, coated antigen, IgG 0.2 uM
T5 construct: unrelated control antigen in the specificity ELISA; also called BSA
Procedure: (§1) After washing the plates three times with 100 uL TBST, each antigen was incubated with 40 uL of purified Fab or IgG samples at a concentration of 1 uM and 0.2 uM respectively (in PBST buffer).
(§2) After 2 h incubation at RT, the plates were again washed three times and bound Fabs/IgGs detected by adding 40 uL of a 1:5000 dilution of secondary AP-conjugated anti-human IgG F(ab2) antibody. After 1 h at RT, the signal was developed by adding 40 uL AttoPhos substrate according to the manufacturer's protocol and the plates were analyzed immediately using an excitation wavelength of 430 nm and an emission wavelength of 535 nm with an ELISA plate reader.

human BMP5 [2] = target: T1, human BMP5; assay: specificity ELISA, coated antigen, IgG 0.2 uM
Procedure: as §1, §2

mouse BMP6 = target: T2, mouse BMP6; assay: specificity ELISA, coated antigen, IgG 0.2 uM
Procedure: as §1, §2

human BMP6 [3] = target: T3, human BMP6; assay: specificity ELISA, coated antigen, IgG 0.2 uM
Procedure: as §1, §2

human BMP7 [4] = target: T4, human BMP7; assay: specificity ELISA, coated antigen, IgG 0.2 uM
Procedure: as §1, §2

human BMP6 [5] = target: T3, human BMP6; assay: cell-based or functional assay
human BMP2 [6] = target: T6, human BMP2 (human, UniProt P12643 283-396); assay: cell-based or functional assay
human BMP7 [7] = target: T4, human BMP7; assay: cell-based or functional assay
human BMP6 [8] = target: T3, human BMP6; assay: cell-based or functional assay; remark: listed apart in the source
human BMP2 [9] = target: T6, human BMP2; assay: cell-based or functional assay; remark: listed apart in the source
human BMP7 [10] = target: T4, human BMP7; assay: cell-based or functional assay; remark: listed apart in the source
[11] = target: 384 purified extracellular or secretory proteins (Protagen UNIchip); assay: Protagen UNIchip protein chip with 384 purified extracellular or secretory proteins, purified hIgG1
human BMP6 [12] = target: T3, human BMP6; assay: method not stated in the table (Table 7 names Biacore)
human BMP6 [13] = target: T3, human BMP6; assay: cell-based or functional assay; remark: listed apart in the source
human BMP6 [14] = target: T3, human BMP6; assay: cell-based or functional assay; remark: listed apart in the source
human BMP6 [15] = target: T3, human BMP6; assay: Biacore
human BMP6 [16] = target: T3, human BMP6; assay: cell-based or functional assay; remark: listed apart in the source
human BMP5 [17] = target: T1, human BMP5; assay: cell-based or functional assay
human BMP5 [18] = target: T1, human BMP5; assay: cell-based or functional assay; remark: listed apart in the source
Bovine serum albumin [19] = target: T5, Bovine serum albumin; assay: ELISA on coated antigen, detection with anti-Fab-AP, fluorescence signal intensity
human BMP2 [20] = target: T6, human BMP2; assay: cell-based or functional assay; remark: listed apart in the source
human BMP6 [21] = target: T3, human BMP6; assay: ELISA binding assay; reference human BMP7

T6 sequence (P12643 283-396 limits assumed): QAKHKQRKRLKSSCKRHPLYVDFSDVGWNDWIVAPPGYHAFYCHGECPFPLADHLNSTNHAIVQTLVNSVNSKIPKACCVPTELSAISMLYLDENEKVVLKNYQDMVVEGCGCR
T5 sequence (P02769 25-607 limits assumed): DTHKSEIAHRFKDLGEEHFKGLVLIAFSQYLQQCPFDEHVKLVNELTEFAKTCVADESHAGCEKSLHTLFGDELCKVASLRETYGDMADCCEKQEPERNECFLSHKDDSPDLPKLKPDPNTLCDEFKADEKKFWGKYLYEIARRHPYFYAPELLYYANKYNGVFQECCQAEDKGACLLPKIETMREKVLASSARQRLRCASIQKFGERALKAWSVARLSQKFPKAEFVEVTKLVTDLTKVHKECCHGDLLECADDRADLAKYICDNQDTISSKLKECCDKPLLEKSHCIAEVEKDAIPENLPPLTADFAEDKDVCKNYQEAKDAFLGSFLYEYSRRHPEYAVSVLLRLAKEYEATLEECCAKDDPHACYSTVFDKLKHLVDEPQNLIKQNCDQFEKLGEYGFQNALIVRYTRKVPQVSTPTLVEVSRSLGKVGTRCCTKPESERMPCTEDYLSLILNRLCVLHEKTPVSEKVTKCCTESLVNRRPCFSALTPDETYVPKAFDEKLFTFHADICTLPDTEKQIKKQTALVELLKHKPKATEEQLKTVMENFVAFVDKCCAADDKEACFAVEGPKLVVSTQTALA

Row | Molecule | Signal over background (Bovine serum albumin [1]) | Signal over background (human BMP5 [2]) | Signal over background (mouse BMP6) | Signal over background (human BMP6 [3]) | Signal over background (human BMP7 [4]) | RGA IC50 (human BMP6 [5]) [µg/mL] | RGA max (human BMP6 [5]) | RGA min (human BMP6 [5]) | RGA IC50 (human BMP2 [6]) [µg/mL] | RGA max (human BMP2 [6]) | RGA min (human BMP2 [6]) | RGA IC50 (human BMP7 [7]) [µg/mL] | RGA max (human BMP7 [7]) | RGA min (human BMP7 [7]) | BRE-luc reporter IC50 in Hep3B (human BMP6 [8]) [nM] | selectivity window of BMP6 over this BMP (BRE-luc reporter) (human BMP7 [10]) [fold] | off-target hits [11] [hits] | Kd (human BMP6 [12]) [nM] | IC50(ug/ml) BMP6 reporter (human BMP6 [13]) [µg/mL] | IC50 (read off the curve); BMP6-induced BRE-luc reporter activity in HEP3B cells (human BMP6 [14]) [nM] | other results
1 | Control IgG (antibody) | 1 | 4 | 18 | 61 | 14 |  |  |  |  |  |  |  |  |  |  |  |  |  |  |  | 
2 | Antibody 5 (antibody, human IgG1, lambda, V domains shown, germlined clone of NOV0787 (HCDR2-matured NOV0442_VL[Y49,G50,N51Q]); human IgG1; lead antibody; also called NOV0951; NOV951) VH: QVQLVESGGGLVKPGGSLRLSCAASGFTFSSYVVHWVRQAPGKGLEWVGRIKRESSSYTTMYAAPVKGRFTISRDDSKNTLYLQMNSLKTEDTAVYYCARVERSKSGFDNWGQGTLVTVSS VL: QSVLTQPPSVSGAPGQRVTISCTGSSSNIGAGYSVHWYQQLPGTAPKLLIYGQSERPSGVPDRFSGSKSGTSASLAITGLQAEDEADYYCQSWDSSQTLVVFGGGTKLTVLG | 1 |  | 24 | 65 | 8 | 0.04 | 0.9 | 0.02 | > 25 | 1 | 0.9 | 25 | 1 | 0.5 | 0.4 | ≥ 500 | < 10 | 0.1 | 0.06 | ~0.5 | selectivity window of BMP6 over this BMP (BRE-luc reporter) (human BMP2 [9]): ≥ 500 fold; Kd (human BMP6 [15]): ~0.1 nM; BRE-Luc RGA IC50 (human BMP6 [16]): 0.26 nM; RGA selectivity, hBMP6 over hBMP7 (human BMP6 [16]): ~1000 fold
3 | Antibody 7 (antibody, human IgG1, lambda, V domains shown, germlined clone of NOV0806 (HCDR2-matured NOV0442_VL[Y49,G50,N51Q]); human IgG1; final lead; also called NOV0958; NOV958) VH: QVQLVESGGGLVKPGGSLRLSCAASGFTFSSYVVHWVRQAPGKGLEWVGRIRLETHGYAAEYAASVKGRFTISRDDSKNTLYLQMNSLKTEDTAVYYCARVERSKSGFDNWGQGTLVTVSS VL: QSVLTQPPSVSGAPGQRVTISCTGSSSNIGAGYSVHWYQQLPGTAPKLLIYGQSERPSGVPDRFSGSKSGTSASLAITGLQAEDEADYYCQSWDSSQTLVVFGGGTKLTVLG | 1 |  | 32 | 59 | 7 | 0.04 | 0.9 | 0.02 |  |  |  | 25 | 0.9 | 0.5 | 0.4 | ≥ 500 | < 10 | 0.1 | 0.07 | ~0.5 | RGA IC50 (human BMP5 [17]): > 25 µg/mL; RGA max (human BMP5 [17]): 1.1; RGA min (human BMP5 [17]): 1.1; selectivity window of BMP6 over this BMP (BRE-luc reporter) (human BMP5 [18]): ≥ 500 fold; binding result (Bovine serum albumin [19]): no binding (tested: not given on the sheet); RGA IC50 (human BMP2 [20]): > 25 µg/mL; RGA max (human BMP2 [20]): 0.9; RGA min (human BMP2 [20]): 1.1; selectivity window of BMP6 over this BMP (BRE-luc reporter) (human BMP2 [20]): > 500 fold; Kd (human BMP6 [15]): ~0.1 nM; BRE-Luc RGA IC50 (human BMP6 [16]): 0.26 nM; RGA selectivity, hBMP6 over hBMP7 (human BMP6 [16]): ~1000 fold; fold selectivity for human BMP6 over human BMP7 (human BMP6 [21]): > 500 fold
4 | Antibody 3 (antibody, human IgG1, lambda, V domains shown, germlined clone of NOV0800 (HCDR2-matured NOV0442_VL[Y49,G50,N51S]); human IgG1; back-up antibody; also called NOV0961; NOV961) VH: QVQLVESGGGLVKPGGSLRLSCAASGFTFSSYVVHWVRQAPGKGLEWVGRIKDHKQGYTTAYAASVKGRFTISRDDSKNTLYLQMNSLKTEDTAVYYCARVERSKSGFDNWGQGTLVTVSS VL: QSVLTQPPSVSGAPGQRVTISCTGSSSNIGAGYSVHWYQQLPGTAPKLLIYGSSERPSGVPDRFSGSKSGTSASLAITGLQAEDEADYYCQSWDSSQTLVVFGGGTKLTVLG | 1 | 1 | 29 | 48 | 2 | 0.08 | 0.9 | 0.02 | > 25 | 1 | 0.8 | > 25 | 1 | 0.8 |  |  |  |  |  |  | RGA IC50 (human BMP5 [17]): > 25 µg/mL; RGA max (human BMP5 [17]): 0.9; RGA min (human BMP5 [17]): 0.8
5 | Antibody 6 (antibody, human IgG1, lambda, V domains shown, germlined clone of NOV0798 (HCDR2-matured NOV0442_VL[Y49,G50,N51Q]); human IgG1; lead antibody; also called NOV0954; NOV954) VH: QVQLVESGGGLVKPGGSLRLSCAASGFTFSSYVVHWVRQAPGKGLEWVGRTRHSDMGYATSYAAPVKGRFTISRDDSKNTLYLQMNSLKTEDTAVYYCARVERSKSGFDNWGQGTLVTVSS VL: QSVLTQPPSVSGAPGQRVTISCTGSSSNIGAGYSVHWYQQLPGTAPKLLIYGQSERPSGVPDRFSGSKSGTSASLAITGLQAEDEADYYCQSWDSSQTLVVFGGGTKLTVLG | 1 | 2 | 29 | 38 | 3 | 0.05 | 1 | 0.02 | > 25 | 1 | 1 | 25 | 0.9 | 0.5 | 0.4 | ≥ 500 | < 10 | < 0.1 | 0.08 | ~0.5 | RGA IC50 (human BMP5 [17]): > 25 µg/mL; RGA max (human BMP5 [17]): 1; RGA min (human BMP5 [17]): 0.9; selectivity window of BMP6 over this BMP (BRE-luc reporter) (human BMP5 [18]): ≥ 500 fold; selectivity window of BMP6 over this BMP (BRE-luc reporter) (human BMP2 [9]): ≥ 500 fold; Kd (human BMP6 [15]): ~0.1 nM; BRE-Luc RGA IC50 (human BMP6 [16]): 0.3 nM; RGA selectivity, hBMP6 over hBMP7 (human BMP6 [16]): ~1000 fold
